The values that follow come from publication PMC8815974, “Mechanistic Insight Into Cadmium- and Zinc-Induced Inactivation of the Candida albicans Pif1 Helicase”.

The data set addresses T1, CaPif1 (Candida albicans, UniProt Q59RQ0 1-906).
T1 sequence: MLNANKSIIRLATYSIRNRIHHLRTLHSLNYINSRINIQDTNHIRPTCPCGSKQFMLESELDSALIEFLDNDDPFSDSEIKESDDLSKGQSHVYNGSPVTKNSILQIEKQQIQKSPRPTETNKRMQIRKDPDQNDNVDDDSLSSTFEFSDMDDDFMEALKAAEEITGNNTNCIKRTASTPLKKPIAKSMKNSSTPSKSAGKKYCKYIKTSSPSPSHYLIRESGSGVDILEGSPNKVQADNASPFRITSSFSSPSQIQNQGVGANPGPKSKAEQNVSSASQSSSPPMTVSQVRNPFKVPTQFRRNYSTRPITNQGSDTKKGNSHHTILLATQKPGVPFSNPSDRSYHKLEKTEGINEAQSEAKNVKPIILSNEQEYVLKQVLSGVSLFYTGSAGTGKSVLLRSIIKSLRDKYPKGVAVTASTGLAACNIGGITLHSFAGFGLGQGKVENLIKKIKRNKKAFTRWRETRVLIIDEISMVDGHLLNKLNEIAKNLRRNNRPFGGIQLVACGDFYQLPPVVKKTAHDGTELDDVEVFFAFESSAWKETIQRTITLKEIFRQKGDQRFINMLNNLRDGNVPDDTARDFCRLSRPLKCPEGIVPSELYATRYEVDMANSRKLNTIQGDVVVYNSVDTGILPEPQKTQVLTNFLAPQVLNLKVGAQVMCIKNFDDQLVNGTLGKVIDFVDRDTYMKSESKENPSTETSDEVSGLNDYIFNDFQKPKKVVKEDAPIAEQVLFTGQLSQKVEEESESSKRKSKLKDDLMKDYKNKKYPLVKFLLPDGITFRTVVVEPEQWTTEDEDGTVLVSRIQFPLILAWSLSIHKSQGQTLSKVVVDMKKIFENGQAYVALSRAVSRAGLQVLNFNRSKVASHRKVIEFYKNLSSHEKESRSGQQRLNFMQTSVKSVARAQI
Put plainly: EMSA; 1.5 mM Mg2+, no ATP; CaPif1 0-3000 nM; 25 mM Tris-HCl pH 7.5, 50 mM NaCl, 1.5 mM MgCl2, 1 mM DTT, 25 C; EMSA 10 nM DNA, 5 min, 6% native PAGE; FP 5 nM DNA, 10 min. The following applies: protein: recombinant, tags: none (N-terminal His-SUMO tag removed). On the technique in general: In EMSA bound probe runs differently from free probe, usually more slowly.

B1: OhS22D21 (dsDNA)
DNA 1: CTGTAGGAATGTGAAATAAAAACGATGTTTTATTTACATTGTA
DNA 2: TACAATGTAAATAAAACATCG
In the case of B1, the binding result (label: 3'-FAM on strand 1, 5' overhang 22 nt, 21 bp duplex) is “binds”.

B2: S40 (ssDNA)
DNA: CCATGCAGCTGTCAGTCCATTGTCATGCTAGGCCTACTGC
As for B2, the binding result (label: 3'-FAM, single strand, 40 nt) is on record as “binds”.
